# According to US20210277097A1:
# Positions count from the first letter of the chain named.
# T1: recombinant purified human RGM A (R&D Systems Cat#2459-RM) (human) (UniProt Q96B86)
# T1 sequence: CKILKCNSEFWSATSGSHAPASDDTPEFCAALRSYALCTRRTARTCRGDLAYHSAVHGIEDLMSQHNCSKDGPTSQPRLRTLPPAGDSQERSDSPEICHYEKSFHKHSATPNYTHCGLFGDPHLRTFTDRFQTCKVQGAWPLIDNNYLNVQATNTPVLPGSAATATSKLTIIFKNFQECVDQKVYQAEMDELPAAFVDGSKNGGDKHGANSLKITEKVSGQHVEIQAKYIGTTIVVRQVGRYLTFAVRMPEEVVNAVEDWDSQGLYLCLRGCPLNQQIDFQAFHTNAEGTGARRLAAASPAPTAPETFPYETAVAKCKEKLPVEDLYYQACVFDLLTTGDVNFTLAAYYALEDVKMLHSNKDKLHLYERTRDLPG
# B1: rat anti-human RGM A monoclonal antibody 5F9 (antibody, V domains shown)
# VH: EVQLVESGGGLVQPGSSLKLSCVASGFTFSNYGMNWIRQAPKKGLEWIGMIYYDSSEKHYADSVKGRFTISRDNSKNTLYLEMNSLRSEDTAIYYCAKGTTPDYWGQGVMVTVSS
# VL: DVVLTQTPVSLSVTLGDQASMSCRSSQSLEYSDGYTFLEWFLQKPGQSPQLLIYEVSNRFSGVPDRFIGSGSGTDFTLKISRVEPEDLGVYYCFQATHDPLTFGSGTKLEIKR
# B2: rat anti-human RGM A monoclonal antibody 8D1 (antibody, V domains shown)
# VH: EVQLQQSGPELVKPGTSVKMSCKTSGYTFTSYVMHWVKQKPGQGLEWIGYIIPYNDNTKYNEKFKGKATLTSDKSSSTAYMELSSLTSEDSAVYYCARRNEYYGSSFFDYWGQGTTLTVSS
# VL: DIQMTQSPASLSASLEEIVTITCQASQDIDNYLAWYHQKPGKSPRLLIYGATNLADGVPSRFSGSRSGTQFSLKINRLQIEDLGIYYCLQGYIPPRTFGGGTKLELKR
# B3: h5F9.6 (antibody, human IgG1, V domains shown)
# VH: B1 VH with L11V, S16R, K19R, V23A, K42G, E82Q, S88A, I93V, V109T
# VL: DVVMTQSPLSLPVTLGQPASISCRSSQSLEYSDGYTFLEWFQQRPGQSPRRLIYEVSNRFSGVPDRFSGSGSGTDFTLKISRVEAEDVGVYYCFQATHDPLTFGQGTKLEIKR
# B4: h5F9.20 (antibody, human IgG1, V domains shown)
# VH: B1 VH with L11V, S16R, K19R, V23A, K42G, E82Q, S88A, I93V, V109T
# VL: B3 VL with M4L
# B5: h5F9.10 (antibody, human IgG1, V domains shown)
# VH: B1 VH with L11V, S16R, K19R, V23A, K42G, E82Q, S88A, I93V, V109T
# VL: B3 VL with F41Y, Q42L, R44K, R50Q, R51L
# B6: h5F9.12 (antibody, human IgG1, V domains shown)
# VH: B1 VH with S16G, K19R, V23A, K42G, E82Q, S88A, I93V, V109T
# VL: B3 VL with F41Y, Q42L, R44K, R50Q, R51L
# B7: h5F9.4 (antibody, human IgG1, V domains shown)
# VH: B1 VH with S16G, K19R, V23A, K42G, E82Q, S88A, I93V, V109T
# VL: B3 VL with V2I, S7T, P12S, L15P, F41Y, Q42L, R44K, R50Q, R51L
# B8: h5F9.22 (antibody, human IgG1, V domains shown)
# VH: B1 VH with L11V, S16R, K19R, V23A, K42G, E82Q, S88A, I93V, V109T
# VL: B3 VL with M4L, F41Y, Q42L, R44K, R50Q, R51L
# B9: h5F9.26 (antibody, human IgG1, V domains shown)
# VH: B1 VH with S16G, K19R, V23A, K42G, E82Q, S88A, I93V, V109T
# VL: B3 VL with M4L, F41Y, Q42L, R44K, R50Q, R51L
# B10: h5F9.8 (antibody, human IgG1, V domains shown)
# VH: B1 VH with S16G, K19R, V23A, K42G, E82Q, S88A, I93V, V109T
# VL: B3 VL
# B11: h5F9.2 (antibody, human IgG1, V domains shown)
# VH: B1 VH with L11V, S16R, K19R, V23A, K42G, E82Q, S88A, I93V, V109T
# VL: B3 VL with V2I, S7T, P12S, L15P, F41Y, Q42L, R44K, R50Q, R51L
# B12: h5F9.1 (antibody, human IgG1, V domains shown)
# VH: EVQLVESGGGVVQPGRSLRLSCAASGFTFSNYGMNWVRQAPGKGLEWVAMIYYDSSEKHYADSVKGRFTISRDNSKNTLYLQMNSLRAEDTAVYYCARGTTPDYWGQGTMVTVSS
# VL: B3 VL with V2I, S7T, P12S, L15P, F41Y, Q42L, R44K, R50Q, R51L
# B13: h5F9.11 (antibody, human IgG1, V domains shown)
# VH: B12 VH with V11L, R16G, A49S, R98K
# VL: B3 VL with F41Y, Q42L, R44K, R50Q, R51L
# B14: h5F9.3 (antibody, human IgG1, V domains shown)
# VH: B12 VH with V11L, R16G, A49S, R98K
# VL: B3 VL with V2I, S7T, P12S, L15P, F41Y, Q42L, R44K, R50Q, R51L
# B15: h5F9.9 (antibody, human IgG1, V domains shown)
# VH: B12 VH
# VL: B3 VL with F41Y, Q42L, R44K, R50Q, R51L
# B16: h5F9.7 (antibody, human IgG1, V domains shown)
# VH: B12 VH with V11L, R16G, A49S, R98K
# VL: B3 VL
# B17: h5F9.5 (antibody, human IgG1, V domains shown)
# VH: B12 VH
# VL: B3 VL
# Molecular target: T1, recombinant purified human RGM A (R&D Systems Cat#2459-RM) (human)
# Assay: direct ELISA: plate coated with hRGM A 2 µg/mL, biotinylated antibody in 1:5 dilutions, streptavidin-HRP, TMB, OD 450
row,Binder,EC50 (read off the curve)
1,B1,0.08 µg/mL
2,B2,0.2 µg/mL

# Molecular target: T1, recombinant purified human RGM A (R&D Systems Cat#2459-RM) (human)
# Assay: competition ELISA on coated hRGMA; competitor: biotinylated chimeric 5F9
row,Binder,IC50
1,B3,> 10 µg/mL
2,B4,> 2 µg/mL
3,B5,> 10 µg/mL
4,B6,> 10 µg/mL
5,B7,> 10 µg/mL
6,B8,> 2 µg/mL
7,B9,> 2 µg/mL
8,B10,> 10 µg/mL
9,B11,> 10 µg/mL
10,B12,> 10 µg/mL
11,B13,> 10 µg/mL
12,B14,> 10 µg/mL
13,B15,> 10 µg/mL
14,B16,> 10 µg/mL
15,B17,> 10 µg/mL

# Molecular target: rat RGM A expressed on BAF3 cells (rat)
# Assay: FACS on BAF3-ratRGMA stable cell line, unlabelled antibody, anti-rat IgG PE; unstained cells 4.71
row,Binder,"Median, FL2-H"
1,B1,29.6
2,B2,5.37
